The target in data set [1] is T1, Wheat germ agglutinin (WGA) (Triticum vulgare, UniProt P10968 P10968:27-197).
T1 sequence: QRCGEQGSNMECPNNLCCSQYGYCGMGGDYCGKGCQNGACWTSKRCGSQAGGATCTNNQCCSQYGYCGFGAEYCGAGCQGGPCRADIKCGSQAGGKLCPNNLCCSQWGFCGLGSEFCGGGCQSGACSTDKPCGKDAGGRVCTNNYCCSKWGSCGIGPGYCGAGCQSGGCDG
The data set can be described thus: filter; 10 nM aptamer and 10 nM WGA, HBSMC pH 7.4, room temperature; displaced by (GlcNAc)2, (GlcNAc)3 and (GlcNAc)4, not by GlcNAc. The conditions noted are these: tags: EY Laboratories; chain copies: 2; label: 5'-32P. As for the experimental part: Small molecule oligosaccharides were screened for their ability to compete with WGA aptamer 11.20 for binding to wheat germ agglutinin protein. The small molecule (or cold 11.20) competitors at varying concentrations were mixed with the 5′-32P end-labeled 11.20 ligand at room temperature. Then WGA was added to the mixture and allowed to equilibrate for 60 minutes at room temperature. The competition mixtures (90 μL volume) all had 32P end-labeled 11.20 at 10 nM, WGA at 10 nM and were in 25 mM Hepes, 137 mM NaCl, 2.7 mM KCl, 1 mM MgCl₂, 1 mM CaCl₂, 0.067% human serum albumin (HSA), at pH 7.4 (HBSMC). Aptamer bound to WGA was separated from free aptamer by filtration through pre-washed […] nitrocellulose membrane filters. Filters were washed with 5 mL HBSMC at room temperature. The filters were placed in tubes with scintillant and the radioactivity counted to quantitate the fraction of 32P end-labeled 11.20 bound at each competitor concentration.

The target in data set [2] is PDGF-BB (platelet-derived growth factor BB) (Homo sapiens, UniProt P01127 P01127:82-190). The data set can be described thus: 33-mer described previously (US 5,723,594); measurement conditions not stated. The conditions noted are these: tags: R&D Systems, carrier free lyophilized; chain copies: 2 (inferred, homodimer).
Sequence of PDGF-BB (platelet-derived growth factor BB) (P01127 82-190, one chain of several): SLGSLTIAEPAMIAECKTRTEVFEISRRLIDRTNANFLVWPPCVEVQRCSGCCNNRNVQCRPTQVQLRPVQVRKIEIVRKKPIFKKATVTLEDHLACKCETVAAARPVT

Experimental findings from patent US20020197617, “Aptamers as reagents for high throughput screening” (GILEAD SCIENCES, INC., published 2002) are described below.

B1: 11.20 (ssRNA)
RNA: GGGAAAAGCGAAUCAUACACAAGAUUGGUCGUACUGGACAGAGCCGUGGUAGAGGGAUUGGGACAAAGUGUCAGCUCCGCCAGAGACCAACCGAGAA
modifications: 2'-NH2 pyrimidines
As to B1, in data set [1], the binding result is “binds”.

As to CGGGCGCGTTCTTCGTGGTTACTTTTAGTCCCG (ssDNA) [20ta], the Kd (as a rule, the constant that tells how readily two partners part at equilibrium) in data set [2] worked out at 0.05 nM. In other words, the picomolar range.
